# Results from the RNAGym collection of RNA variant scans (doi:10.1021/acssynbio.7b00057).
# B1: Pistol ribozyme (parent)
# chain: GGGUCGUUGUUCCAUAAUCGCGUGGAUAUGGCACGCAAGUUUCUACCGGGCACCGUAAAUGUCCGACUGGAGCCGUUCGGGCGGCUAUAAACAGACCUCAGGCCCGAAGCGUGGCGGCACCUGCCGCCGGUGGUAAAAAAGAUCGGAAGAGCACACGUCU
# Variants of: B1
# Experiment: aptazyme ON/OFF ratio, guanine; higher = stronger switching; co-transcriptional cleavage with and without guanine
row,Variant,aptazyme ON/OFF ratio
1,U8G U11A,3.01
2,U7G U8G U10G C12A C13A,1.51
3,G9C U10G U11C C13A,1.24
4,U7A U8G G9C U10C U11G C12G C13U,1.09
5,U8G G9C U10G U11C C12U C13G,1.02
6,G9A U10G C12A,1.53
7,U8C G9U U10G U11G C12G C13U,1.26
8,U7A U8C U10C U11G C12A C13G,1.28
9,G9A U10C U11C C12U C13A,1.03
10,U7G G9A U10A C13G,1.06
11,U8G U10C U11C,1.19
12,U7G U8C G9C U10C C12G C13G,1.11
13,U8A U10G U11G C12G C13G,1.06
14,U7A U8A G9C U11A C12U C13A,1.1
15,U7A U8G U10A U11C C12G C13U,1.21
16,U7G U8A G9C U10G C12U,1.03
17,G9C U10G U11G C12U,1.13
18,U7C U8A G9A U10G U11G C13G,1.05
19,U7G G9U U10G U11C C12U,1.17
20,U7G U8G G9C U10C U11G C12U,1.37
21,U7A U8A G9U U10A U11G C12U C13G,1.15
22,U7G U8A G9C U11C C12U,1.11
23,U7A U10G C12A C13G,1.09
24,U7G U8A G9U U10A U11C C12A C13A,1.1

row,Variant,aptazyme ON/OFF ratio
1,U7G U8G G9C U10C U11G C12G C13A,1.19
2,U7A G9U U10A U11C C12A C13U,1.17
3,U7C U8A G9A U10A C12G C13U,1.27
4,U8C U11C C12G C13A,1.37
5,U7G G9C U11C C13G,1.06
6,U7A U8A G9A U10C U11C C12U,1.04
7,U7G U8A G9A U11G C12U C13A,1.22
8,U7A G9A U10A U11C C12G C13A,1.08
9,U7A U8A U10C C12G,1.16
10,U8C G9C U10G U11A C12G C13A,1.08
11,U8C G9A U10G C12U C13U,1.54
12,U7C U8C G9C U10A U11G C12U C13A,1.15
13,U8G G9C U10C U11C C12U C13A,1.04
14,U7A U8G G9U U10C U11G C13U,1.31
15,U8C G9A U10C U11A C12G C13A,1.23
16,U7G G9U C12U,2.07
17,U7A U8G G9A U10C U11C C12A C13A,1.09
18,G9A U11C C13G,1.11
19,G9C U10C U11A C12A C13U,1.11
20,U7C U8A G9C U10G C12U C13A,1.18
21,U7A G9C U10G U11C,1.03
22,U7G U8G G9A C12G,1.59
23,G9C U10A U11A C12U C13A,1.34
24,U7A U8G G9A U11C C13U,1.2

row,Variant,aptazyme ON/OFF ratio
1,U7A U8G G9A U10C U11G C13U,1.25
2,U7G U8C U10A U11G C12U C13U,1.16
3,U8A G9C U10C U11C C13G,1.06
4,U7G U8A G9C U10A U11A C12U C13G,1.05
5,U8C G9A U10C C13A,1.06
6,U7C U10A U11A C12G C13G,1.33
7,U7A U8C G9C U10G C12U,1.02
8,G9A U10C U11C C12G,1.18
9,U7A U10G U11A C12U C13U,1.07
10,U7G U8A G9C U10A U11G C12A C13G,1.05
11,U7A U8C G9A U11A C13G,1.09
12,U7G U8A G9A U10A U11C,1.03
13,U7G U8G G9A U10A U11C C12G C13G,1.22
14,U7C G9C U10C U11G C12A,1.05
15,U8A U10C C12U,3.12
16,U7A G9C U10C U11A C13U,1.09
17,U8C G9C U10C C12G C13G,1.12
18,U7G U8A G9U U10C U11A C13G,1.05
19,U7A G9U U10C U11A,1.31
20,U7G G9U U10C U11G C12G C13A,1.13
21,U10C C12G C13U,1.35
22,U7A G9U U11G C12A,1.11
23,U10G C12A C13U,1.19
24,U7G U8C U10A C12G C13A,1.22

row,Variant,aptazyme ON/OFF ratio
1,U7G U8C G9A U11G C12G,1.14
2,U7A U8A G9C U10A U11G C12A C13U,1.08
3,U7A U8C G9U U11C C12A C13A,1.18
4,U7G U8A C12U,1.44
5,U7A U8A C12A,1.76
6,U8G G9U U10C U11A C12U C13A,1.08
7,U7C U8G G9U U10G U11C C12G C13U,1.08
8,U7G U8A G9C U10C U11A C13A,1.1
9,U7A U8G U10C U11C C12U C13G,1.18
10,U8G G9A U10C U11G C13A,1.11
11,U7A U8G G9U U10G U11C C12U,1.04
12,U8C U10G U11G C12U C13A,1.11
13,U7G U8C U10C U11C C12A C13U,1.2
14,U7G U8C U10C C12A,1.22
15,U7C U8A G9A U10A U11A C12G C13A,1.2
16,U7C U8G G9U U10G C12G C13A,1.07
17,U7G U8G G9C U11A C12A C13U,1.16
18,U7C U10C U11A C12A C13A,1.49
19,U7C U8G G9U U10G C12G C13U,1.07
20,U7C U8G G9C U10G C12G C13U,1.13
21,U7G U8A U10A U11G C12U C13U,1.71
22,U7C G9A U10G C12U C13G,1.17
23,U7C U8C U10G C12A C13A,1.1
24,U7G G9C U10A U11G C12U C13G,1.2

row,Variant,aptazyme ON/OFF ratio
1,U7C G9C U10C U11C C12G C13A,1.03
2,U8G U10C U11A C12A C13G,1.11
3,U8C U10A C12G C13U,1.26
4,U7G U8C G9A C12U,1.07
5,G9C U10C U11C C12A C13G,1.01
6,U10C U11A C12A C13A,1.37
7,U8G G9U U10C C12U C13U,1.2
8,U7C U8G G9C U10A U11A C13G,1.08
9,G9C U10A U11A C13U,1.32
10,U7A U10G C12U C13A,1.41
11,U7G U8G G9A U11C C12U C13A,1.31
12,U7A U8C G9A U10G C12G C13U,1.31
13,U7A U8A G9U U10A C12A C13U,1.15
14,U8G G9U U10G U11G C12A C13A,1.07
15,U7C U8G G9C U10G U11G C12G,1.13
16,U8G G9A U11G C12G C13G,1.57
17,U7G U10C U11C C12G C13A,1.1
18,U8C G9A U10C C12G C13G,1.4
19,U7A U8A G9U U11A C12U,1.15
20,U7G G9U U10G U11A C13G,1.16
21,U7A U8A G9A U10A C13A,1.12
22,U7C G9A U11A C13G,1.09
23,U7A U8A G9U U10G U11A C12U C13G,1.15
24,U7G U8A G9A U10C U11A C13G,1.07

row,Variant,aptazyme ON/OFF ratio
1,U8A G9A U11A C13A,1.26
2,U7G U8C G9A U11A C12A C13G,1.07
3,U7A G9C U10A C12U C13A,1.14
4,G9U U10G U11G C12U,1.33
5,U7A U8G G9C U10C U11C C12A C13A,1.01
6,U7G U8A U10A U11G C12U,1.14
7,U7C U8C U10A U11C,1.03
8,U7C U8G G9C U11C C12G C13G,1.08
9,U7G U8A G9A U10G U11G C12U,1.48
10,U7G U8G G9A U10C U11A C13G,1.1
11,U7C U8A G9A U11A C12U C13A,1.32
12,U7C U8C G9U U11G C12G C13U,1.05
13,U7A U10C C12G,1.42
14,U7C U8C G9U U10A U11G C13A,1.12
15,U7C U8A G9U U10A U11A C12A,1.1
16,U7G G9A U10G U11G C12U C13A,1.09
17,U8G G9C U10C C13U,1.07
18,U7G U8A G9C U10G C12A C13G,1.03
19,U7C U8C G9C U10G C13A,1.13
20,U8A C12G,1.46
21,U7G U8C G9U U10G C12A C13G,1.11
22,U7A U8G G9C U11A C12G C13U,1.28
23,U7G U8C G9A U11C C12G C13G,1.05
24,U7G U8C G9A U10C U11C C12A,1.16

row,Variant,aptazyme ON/OFF ratio
1,U7A U8G G9U U11G C12U,1.26
2,U7A U8G G9C U11C C12G C13A,1.19
3,U7G U8C G9C U10A U11A C13G,1.1
4,U8C U10G U11C C13G,1.07
5,U7A U8A C13A,1.38
6,U7G U8G G9A C12G C13A,1.14
7,U7C U8C U10G U11G C13U,1.16
8,U7G U8C G9A U10C U11G C12U,1.37
9,U7G U8A G9U U10G U11G C12U C13G,1.06
10,U8G G9A U10A U11A C12A C13A,1.21
11,U7A U10C U11G C12U,1.24
12,U7A U8A G9U U10G U11G C12A C13G,1.2
13,U7A U8A G9A U10G U11C C12G C13G,1.17
14,U7G U8A G9C U11C C12G C13U,1.04
15,U7G U8C G9A U11A C12U C13A,1.09
16,U8G U10G U11G C12U C13G,1.31
17,U7C U8G G9U U10G U11G C12G C13A,1.15
18,U7C U8G G9U C13A,1.31
19,U7A U8A G9C U10C U11G C13A,1.06
20,U7G U8C G9A U10G U11A C12A,1.11
21,U7C U8G U10G U11G C12A,1.28
22,U8G U11C C12A C13G,1.23
23,U7C U8G U10G U11C C13A,1.24
